Results taken from patent publication CN113045663A (SHENZHEN INNOVA NANOBODI CO LTD, dated 2021).

Target: T1, 血清标本中的HE4抗原 (human, UniProt Q14508 31-124, limits assumed)
T1 construct: Serum HE4 detected in the sandwich assay; kept apart from the recombinant antigen; also called 血清中HE4; 质控血清HE4
T1 sequence (looked up): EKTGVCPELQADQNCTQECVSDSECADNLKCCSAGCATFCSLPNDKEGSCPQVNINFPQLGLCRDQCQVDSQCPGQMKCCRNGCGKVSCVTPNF
Assay: double-antibody sandwich chemiluminescent ELISA, capture antibody

B1: FC融合纳米抗体3C8 (Fc fusion)
chain: QLQESGGGLVQAGGSVRLSCAASGRTFRRYHMGWFRQTPGKEREFVAAISWSGGTTYYAESVKGRFTISRDNAKNTIYLQMNSLKPEDTAVYYCAPTYGNYWHPSGYWGQGTQVTVSS
notes: Capture antibody of the double-antibody sandwich assay; also called 3C8 (捕获一抗); 捕获抗体3C8; not shown: Fc part and any linker
binding result: binds
